Data published in patent CN114349860A (SHENZHEN GUEN BIOTECHNOLOGY CO LTD, dated 2022).

Molecular target: T1, FGFR4蛋白 (FGFR4 protein antigen, bought from Sino Biological / 义翘神州) (human, UniProt P22455 22-369, limits assumed)
T1 construct: also called FGFR4蛋白抗原; 成纤维细胞生长因子受体4
T1 sequence (looked up): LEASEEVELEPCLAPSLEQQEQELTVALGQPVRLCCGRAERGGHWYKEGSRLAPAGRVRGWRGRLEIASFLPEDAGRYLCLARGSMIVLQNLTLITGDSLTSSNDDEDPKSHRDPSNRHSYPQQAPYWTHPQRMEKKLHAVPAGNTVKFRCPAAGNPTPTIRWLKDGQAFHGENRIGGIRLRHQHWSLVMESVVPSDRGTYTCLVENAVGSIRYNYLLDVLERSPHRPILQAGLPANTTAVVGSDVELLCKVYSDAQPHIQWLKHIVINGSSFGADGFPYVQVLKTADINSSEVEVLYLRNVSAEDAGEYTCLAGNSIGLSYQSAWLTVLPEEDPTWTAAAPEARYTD
Assay: BLI (OCTET K2), FGFR4 protein 10 ug/mL loaded on AHC sensors, 1B5 at 566.7-8.84 nM in solution

Kd: < 1 pM
B1: 抗成纤维细胞生长因子受体4单克隆抗体1B5 (antibody, V domains shown)
VH: EVMLVQSGPELKKPGETVKISCKASGYTFTNFGMNWVKQAPGKGLKWMGWINTYTGEPTYADDFKGRFVFSLETSASTAYLQINNLKNEDTATYLCVRSSSGYVFDYWGQGTIVTVG
VL: DIVMTQSPSSLAVSAGEKVTMSCKSSQSLLNSRTRKNYLAWYQQKPGQSPKLLIYWASTRESGVPDRFTGSGSGTDFTLTISSVQAEDLAVYYCKQSYNLLTFGEGTKLEIT
notes: Mouse hybridoma antibody (BALB/c), purified from ascites on Protein G and detected with anti-mouse IgG second antibodies; also called 1B5抗体; FGFR4单克隆抗体
